The labels stand for the following.
B1: Ino80_(368–390) [Saccharomyces cerevisiae] / Taf14ET (Taf14_(174–244)) [Saccharomyces cerevisiae] (parent complex)
chain 1: DSKLNIKITLKQYHVKRLKKLIN
chain 2: KGSVDLEKLAFGLTKLNEDDLVGVVQMVTDNKTPEMNVTNNVEEGEFIIDLYSLPEGLLKSLWDYVKKNTE
B2: Sth1EBM (Sth1_(1183–1240)) [Saccharomyces cerevisiae] / Taf14ET (Taf14_(174–244)) [Saccharomyces cerevisiae] (parent complex)
chain 1: EVKSSSVEIINGSESKKKKPKLTVKIKLNKTTVLENNDGKRAEEKPESKSPAKKTAAK
chain 2: B1 chain 2
B3: Snf5_(771–800) [Saccharomyces cerevisiae] / Taf14ET (Taf14_(174–244)) [Saccharomyces cerevisiae] (parent complex)
chain 1: SPPCYIIDHIPGHSLLLSIKLPGKVNTKEE
chain 2: B1 chain 2
B4: Sth1^WT-TAP [Saccharomyces cerevisiae] / Taf14-HA [Saccharomyces cerevisiae] (parent complex)
chain 1: MLQEQSELMSTVMNNTPTTVAALAAVAAASETNGKLGSEEQPEITIPKPRSSAQLEQLLYRYRAIQNHPKENKLEIKAIEDTFRNISRDQDIYETKLDTLRKSIDKGFQYDEDLLNKHLVALQLLEKDTDVPDYFLDLPDTKNDNTTAIEVDYSEKKPIKISADFNAKAKSLGLESKFSNATKTALGDPDTEIRISARISNRINELERLPANLGTYSLDDCLEFITKDDLSSRMDTFKIKALVELKSLKLLTKQKSIRQKLINNVASQAHHNIPYLRDSPFTAAAQRSVQIRSKVIVPQTVRLAEELERQQLLEKRKKERNLHLQKINSIIDFIKERQSEQWSRQERCFQFGRLGASLHNQMEKDEQKRIERTAKQRLAALKSNDEEAYLKLLDQTKDTRITQLLRQTNSFLDSLSEAVRAQQNEAKILHGEEVQPITDEEREKTDYYEVAHRIKEKIDKQPSILVGGTLKEYQLRGLEWMVSLYNNHLNGILADEMGLGKTIQSISLITYLYEVKKDIGPFLVIVPLSTITNWTLEFEKWAPSLNTIIYKGTPNQRHSLQHQIRVGNFDVLLTTYEYIIKDKSLLSKHDWAHMIIDEGHRMKNAQSKLSFTISHYYRTRNRLILTGTPLQNNLPELWALLNFVLPKIFNSAKTFEDWFNTPFANTGTQEKLELTEEETLLIIRRLHKVLRPFLLRRLKKEVEKDLPDKVEKVIKCKLSGLQQQLYQQMLKHNALFVGAGTEGATKGGIKGLNNKIMQLRKICNHPFVFDEVEGVVNPSRGNSDLLFRVAGKFELLDRVLPKFKASGHRVLMFFQMTQVMDIMEDFLRMKDLKYMRLDGSTKTEERTEMLNAFNAPDSDYFCFLLSTRAGGLGLNLQTADTVIIFDTDWNPHQDLQAQDRAHRIGQKNEVRILRLITTDSVEEVILERAMQKLDIDGKVIQAGKFDNKSTAEEQEAFLRRLIESETNRDDDDKAELDDDELNDTLARSADEKILFDKIDKERMNQERADAKAQGLRVPPPRLIQLDELPKVFREDIEEHFKKEDSEPLGRIRQKKRVYYDDGLTEEQFLEAVEDDNMSLEDAIKKRREARERRRLRQNGTKENEIETLENTPEASETSLIENNSFTAAVDEETNADKETTASRSKRRSSRKKRTISIVTAEDKENTQEESTSQENGGAKVEEEVKSSSVEIINGSESKKKKPKLTVKIKLNKTTVLENNDGKRAEEKPESKSPAKKTAAKKTKTKSKSLGIFPTVEKLVEEMREQLDEVDSHPRTSIFEKLPSKRDYPDYFKVIEKPMAIDIILKNCKNGTYKTLEEVRQALQTMFENARFYNEEGSWVYVDADKLNEFTDEWFKEHSS
chain 2: MVATVKRTIRIKTQQHILPEVPPVENFPVRQWSIEIVLLDDEGKEIPATIFDKVIYHLHPTFANPNRTFTDPPFRIEEQGWGGFPLDISVFLLEKAGERKIPHDLNFLQESYEVEHVIQIPLNKPLLTEELAKSGSTEETTANTGTIGKRRTTTNTTAEPKAKRAKTGSASTVKGSVDLEKLAFGLTKLNEDDLVGVVQMVTDNKTPEMNVTNNVEEGEFIIDLYSLPEGLLKSLWDYVKKNTE

13 variants from publication PMC7442819, “Taf14 recognizes a common motif in transcriptional machineries and facilitates their clustering by phase separation” (Nature Communications, 2020) can be followed below.

The variants in the first test derive from B1. Briefly: ITC; parent: 250 nM.
As for chain 1 DSKLNIKITAKQYHVKRLKKLIN [chain 1 L10A], the Kd is 3.87 µM.
With chain 1 DSKLNAKITLKQYHVKRLKKLIN [chain 1 I6A], the Kd came to 3.86 µM.

Variants of B2 are the subject of another test. The test can be described thus: ITC; parent: 50 nM.
Regarding chain 2 KGSVDLEKLAFGLTKLNEDDLVGVVQMVTDNKTPEMNVTNNVEEGEAIIDLYSLPEGLLKSLWDYVKKNTE [chain 2 F47A], the dissociation constant (Kd) is 0.68 µM.
As for chain 2 KGSVDLEKLAFGLTKLNEDDLVGVVQMVTDNKTPEMNVTNNVEEGERIIDLYSLPEGLLKSLWDYVKKNTE [chain 2 F47R], the dissociation constant (Kd) was 3.5 µM.

The variants in a further test derive from B2. The test can be described thus: ITC; parent: 50 nM. The source holds these as a separate data set.
Turning to chain 1 EVKSSSVEIINGSESKKKKPKLTVKAKLNKTTVLENNDGKRAEEKPESKSPAKKTAAK [chain 1 I26A], the Kd came to 13.4 µM.
As to chain 1 EVKSSSVEIINGSESKKKKPKLTAKIKLNKTTVLENNDGKRAEEKPESKSPAKKTAAK [chain 1 V24A], the Kd worked out at 2.04 µM.
chain 1 EVKSSSVEIINGSESKKKKPKLTVKIKANKTTVLENNDGKRAEEKPESKSPAKKTAAK [chain 1 L28A]: the equilibrium dissociation constant (Kd) is 1.14 µM.
Still for that read-out and setting: under chain 1 EVKSSSVEIINGSESKKKKPKATVKIKLNKTTVLENNDGKRAEEKPESKSPAKKTAAK [chain 1 L22A] stands 2.06 µM; under chain 1 EVKSSSVEIINGSESKKKKPKLTVEIKLNKTTVLENNDGKRAEEKPESKSPAKKTAAK [chain 1 K25E], 7.69 µM; under chain 1 EVKSSSVEIINGSESKKKKPKLTVKIELNKTTVLENNDGKRAEEKPESKSPAKKTAAK [chain 1 K27E], 3.94 µM.

The next test covers variants of B3. The test can be described thus: ITC; parent: 2.48e+03 nM.
On to chain 1 SPPCYIIDHIPGHSLLASIKLPGKVNTKEE [chain 1 L17A], for which the dissociation constant Kd turned out to be 41.5 µM.
In the case of chain 1 SPPCYIIDHIPGHSLLLSAKLPGKVNTKEE [chain 1 I19A], the dissociation constant (Kd) was found to be 189 µM.

In the next test the parent is B4. Briefly: Co-immunoprecipitation; IP: HA; IB: anti-TAP; parent: 1.
Turning to chain 1 L1204A, chain 1 V1206A, chain 1 I1208A, chain 1 L1210A, the ratio to parent is 0.38.
